Factor of increase of tPA binding against the protein incubated with buffer only data for one substance are collected here from patent US20080249606A1.

This assay has as its target endostatin incubated overnight with DXS500k (human) (UniProt P39060). The experiment in a line: ELISA, protein/DXS500k mixture immobilized on Greiner Microlon plate, tPA in 10 mM εACA, detection with antibody 374b. (In general: An ELISA detects its analyte on a solid surface through an enzyme-linked reagent.)

Sequence of endostatin incubated overnight with DXS500k (human) (P39060 1572-1754): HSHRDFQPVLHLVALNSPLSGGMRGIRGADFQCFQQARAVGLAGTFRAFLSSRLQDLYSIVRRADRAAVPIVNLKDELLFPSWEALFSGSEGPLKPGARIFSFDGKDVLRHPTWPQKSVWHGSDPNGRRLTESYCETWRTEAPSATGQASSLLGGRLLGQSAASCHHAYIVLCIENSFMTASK
Sequence of tissue-type plasminogen activator (tPA, Actilyse, Boehringer-Ingelheim) (P00750 36-562 limits assumed): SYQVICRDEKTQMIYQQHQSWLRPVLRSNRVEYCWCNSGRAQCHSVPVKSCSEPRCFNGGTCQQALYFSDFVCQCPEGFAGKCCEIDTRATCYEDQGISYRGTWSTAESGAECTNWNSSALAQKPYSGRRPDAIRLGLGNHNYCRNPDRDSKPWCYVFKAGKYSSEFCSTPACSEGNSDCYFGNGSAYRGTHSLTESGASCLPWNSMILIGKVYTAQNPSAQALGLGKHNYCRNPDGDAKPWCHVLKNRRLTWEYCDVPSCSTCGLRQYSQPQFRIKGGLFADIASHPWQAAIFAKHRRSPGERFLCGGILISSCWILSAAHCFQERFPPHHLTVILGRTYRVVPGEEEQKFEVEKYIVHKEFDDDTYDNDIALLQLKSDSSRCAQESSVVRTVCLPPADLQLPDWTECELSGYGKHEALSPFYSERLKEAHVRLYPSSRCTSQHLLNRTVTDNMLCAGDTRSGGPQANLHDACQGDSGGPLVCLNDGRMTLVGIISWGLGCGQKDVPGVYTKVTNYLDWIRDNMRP

As to “tissue-type plasminogen activator (tPA, Actilyse, Boehringer-Ingelheim) (from UniProt P00750 36-562) (enzyme)”, the factor of increase of tPA binding against the protein incubated with buffer only amounted to 10.5 fold.
